As usually defined, the pKd is the negative decadic logarithm of the Kd, by convention in mol/L.

Sequence of SCRIB_1, Q14160 (Q14160 718-814): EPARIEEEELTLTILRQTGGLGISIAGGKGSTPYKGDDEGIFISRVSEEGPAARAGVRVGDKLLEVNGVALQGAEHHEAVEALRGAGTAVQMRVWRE
Sequence of MAGI1_2, Q96QZ7 (Q96QZ7 456-580): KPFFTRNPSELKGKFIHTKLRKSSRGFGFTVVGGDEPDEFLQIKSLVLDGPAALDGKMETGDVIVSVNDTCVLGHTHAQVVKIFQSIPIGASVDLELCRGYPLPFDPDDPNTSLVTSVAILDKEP
Sequence of PARD3_3, Q8TEW0 (Q8TEW0 582-685): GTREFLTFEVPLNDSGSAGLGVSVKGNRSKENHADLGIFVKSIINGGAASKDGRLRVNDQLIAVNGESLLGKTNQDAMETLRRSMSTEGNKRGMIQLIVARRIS

The first test deals with T1, DFNB31_3, Q9P202.
T1 sequence (Q9P202 811-907, limits assumed, looked up): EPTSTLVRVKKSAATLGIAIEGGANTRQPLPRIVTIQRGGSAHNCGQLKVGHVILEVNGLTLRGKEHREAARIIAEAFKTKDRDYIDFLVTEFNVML
The test can be described thus: holdup assay. As to conditions: plain residues with an end cap or a label only (N-terminal biotin on a linker: ado-ado). Set-up: key: below the threshold = too weak to quantify, mostly under pKd 3.1 to 4.
The molecule IKLETKKTKL [SLC15A2, Q16348] came in with a pKd of 4.16.

In a further test the target is T2, DFNB31_1, Q9P202.
T2 sequence (Q9P202 135-233, limits assumed, looked up): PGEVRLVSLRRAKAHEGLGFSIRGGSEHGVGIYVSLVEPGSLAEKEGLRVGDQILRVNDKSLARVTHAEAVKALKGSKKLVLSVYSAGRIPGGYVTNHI
Nature of the test: holdup assay. To be noted: plain residues with an end cap or a label only (N-terminal biotin on a linker: ado-ado). Also on record: key: below the threshold = too weak to quantify, mostly under pKd 3.1 to 4.
IKLETKKTKL [SLC15A2, Q16348] had a pKd of 3.79.

The target of another test is T3, PARD3B_1, Q8TEW8.
T3 sequence (Q8TEW8 196-299, limits assumed, looked up): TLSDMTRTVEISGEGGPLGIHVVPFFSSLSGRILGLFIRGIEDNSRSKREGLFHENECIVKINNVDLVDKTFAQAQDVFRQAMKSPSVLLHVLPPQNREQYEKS
The test can be described thus: holdup assay. Set-up: key: below the threshold = too weak to quantify, mostly under pKd 3.1 to 4. As to conditions: plain residues with an end cap or a label only (N-terminal biotin on a linker: ado-ado).
With IKLETKKTKL [SLC15A2, Q16348], the pKd is 3.77.

The target of another test is NHERF4_2, Q86UT5. The test can be described thus: holdup assay. Also on record: key: below the threshold = too weak to quantify, mostly under pKd 3.1 to 4. To be noted: plain residues with an end cap or a label only (N-terminal biotin on a linker: ado-ado).
Sequence of NHERF4_2, Q86UT5 (Q86UT5 220-308): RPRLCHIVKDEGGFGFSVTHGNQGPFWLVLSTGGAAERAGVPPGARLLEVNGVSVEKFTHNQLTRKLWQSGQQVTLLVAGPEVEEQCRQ
The molecule IKLETKKTKL [SLC15A2, Q16348] gave a pKd of 3.63.

A further test addresses MAGI1_2, Q96QZ7. The test can be described thus: holdup assay. Set-up: key: below the threshold = too weak to quantify, mostly under pKd 3.1 to 4. To be noted: plain residues with an end cap or a label only (N-terminal biotin on a linker: ado-ado).
IKLETKKTKL [SLC15A2, Q16348] gave a pKd of 3.58.

The next test deals with T4, SNTG1, Q9NSN8.
T4 sequence (Q9NSN8 52-150, limits assumed, looked up): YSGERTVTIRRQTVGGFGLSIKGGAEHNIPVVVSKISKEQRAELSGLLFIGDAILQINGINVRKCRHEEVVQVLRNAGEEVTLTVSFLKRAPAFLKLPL
Nature of the test: holdup assay. Also on record: key: below the threshold = too weak to quantify, mostly under pKd 3.1 to 4. To be noted: plain residues with an end cap or a label only (N-terminal biotin on a linker: ado-ado).
In turn, IKLETKKTKL [SLC15A2, Q16348] showed a pKd of 3.64.

The next test has as its target SCRIB_1, Q14160. Nature of the test: holdup assay. Also on record: key: below the threshold = too weak to quantify, mostly under pKd 3.1 to 4. To be noted: plain residues with an end cap or a label only (N-terminal biotin on a linker: ado-ado).
IKLETKKTKL [SLC15A2, Q16348] had a pKd of 3.79.

Another test deals with LIMK2, P53671. Nature of the test: holdup assay. As to conditions: plain residues with an end cap or a label only (N-terminal biotin on a linker: ado-ado). Set-up: key: below the threshold = too weak to quantify, mostly under pKd 3.1 to 4.
Sequence of LIMK2, P53671 (P53671 143-248): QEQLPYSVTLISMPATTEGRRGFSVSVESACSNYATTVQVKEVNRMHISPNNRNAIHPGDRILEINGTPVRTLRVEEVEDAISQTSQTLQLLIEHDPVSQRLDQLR
Consider IKLETKKTKL [SLC15A2, Q16348], for which the pKd result is “below the threshold”.

The target of another test is T5, HTRA3, P83110.
T5 sequence (P83110 354-453, limits assumed, looked up): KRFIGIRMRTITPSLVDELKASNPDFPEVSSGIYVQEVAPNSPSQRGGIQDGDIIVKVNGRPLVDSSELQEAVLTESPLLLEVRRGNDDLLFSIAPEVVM
Nature of the test: holdup assay. Also on record: key: below the threshold = too weak to quantify, mostly under pKd 3.1 to 4. To be noted: plain residues with an end cap or a label only (N-terminal biotin on a linker: ado-ado).
IKLETKKTKL [SLC15A2, Q16348]: the pKd entry is listed as “below the threshold”.

Another test concerns the target T6, SNTA1, Q13424.
T6 sequence (Q13424 82-180, limits assumed, looked up): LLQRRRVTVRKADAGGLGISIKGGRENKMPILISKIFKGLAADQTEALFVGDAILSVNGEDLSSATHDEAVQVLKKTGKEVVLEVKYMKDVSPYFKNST
Nature of the test: holdup assay. To be noted: plain residues with an end cap or a label only (N-terminal biotin on a linker: ado-ado). Set-up: key: below the threshold = too weak to quantify, mostly under pKd 3.1 to 4.
In the case of IKLETKKTKL [SLC15A2, Q16348], the pKd worked out at 3.59.

The next test addresses T7, ARHGAP21, Q5T5U3.
T7 sequence (Q5T5U3 45-169, limits assumed, looked up): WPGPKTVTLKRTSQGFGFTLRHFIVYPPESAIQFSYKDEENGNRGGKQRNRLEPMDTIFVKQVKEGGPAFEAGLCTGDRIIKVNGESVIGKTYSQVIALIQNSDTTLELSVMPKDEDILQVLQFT
The test can be described thus: holdup assay. To be noted: plain residues with an end cap or a label only (N-terminal biotin on a linker: ado-ado). Set-up: key: below the threshold = too weak to quantify, mostly under pKd 3.1 to 4.
IKLETKKTKL [SLC15A2, Q16348] returned a pKd of 3.98.

Another test deals with T8, SIPA1L2, Q9P2F8.
T8 sequence (Q9P2F8 945-1036, limits assumed, looked up): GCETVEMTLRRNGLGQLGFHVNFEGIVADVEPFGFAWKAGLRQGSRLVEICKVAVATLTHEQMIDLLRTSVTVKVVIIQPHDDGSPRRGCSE
The test can be described thus: holdup assay. Also on record: key: below the threshold = too weak to quantify, mostly under pKd 3.1 to 4. To be noted: plain residues with an end cap or a label only (N-terminal biotin on a linker: ado-ado).
The molecule IKLETKKTKL [SLC15A2, Q16348] came in with a pKd of 3.62.

Another test deals with GRIP2_3, Q9C0E4. The test can be described thus: holdup assay. Also on record: key: below the threshold = too weak to quantify, mostly under pKd 3.1 to 4. As to conditions: plain residues with an end cap or a label only (N-terminal biotin on a linker: ado-ado).
Sequence of GRIP2_3, Q9C0E4 (Q9C0E4 238-339): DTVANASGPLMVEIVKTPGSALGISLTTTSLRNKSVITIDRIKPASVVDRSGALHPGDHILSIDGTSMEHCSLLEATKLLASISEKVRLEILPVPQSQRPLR
Turning to IKLETKKTKL [SLC15A2, Q16348], the pKd entry was “below the threshold”.

The next test deals with SCRIB_3, Q14160. Nature of the test: holdup assay. Set-up: key: below the threshold = too weak to quantify, mostly under pKd 3.1 to 4. To be noted: plain residues with an end cap or a label only (N-terminal biotin on a linker: ado-ado).
Sequence of SCRIB_3, Q14160 (Q14160 999-1103): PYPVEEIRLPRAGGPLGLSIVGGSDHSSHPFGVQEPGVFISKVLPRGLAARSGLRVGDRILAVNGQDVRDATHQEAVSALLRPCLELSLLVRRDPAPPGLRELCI
IKLETKKTKL [SLC15A2, Q16348] gave a pKd of 3.77.

The next test has as its target T9, PDZD7_3, Q9H5P4.
T9 sequence (Q9H5P4 857-944, limits assumed, looked up): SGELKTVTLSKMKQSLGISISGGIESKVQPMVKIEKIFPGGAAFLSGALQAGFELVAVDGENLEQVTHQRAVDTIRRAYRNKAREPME
The test can be described thus: holdup assay. Set-up: key: below the threshold = too weak to quantify, mostly under pKd 3.1 to 4. As to conditions: plain residues with an end cap or a label only (N-terminal biotin on a linker: ado-ado).
Turning to IKLETKKTKL [SLC15A2, Q16348], the pKd is 4.75.

In another test the target is GORASP1, Q9BQQ3. The test can be described thus: holdup assay. Also on record: key: below the threshold = too weak to quantify, mostly under pKd 3.1 to 4. To be noted: plain residues with an end cap or a label only (N-terminal biotin on a linker: ado-ado).
Sequence of GORASP1, Q9BQQ3 (Q9BQQ3 1-208): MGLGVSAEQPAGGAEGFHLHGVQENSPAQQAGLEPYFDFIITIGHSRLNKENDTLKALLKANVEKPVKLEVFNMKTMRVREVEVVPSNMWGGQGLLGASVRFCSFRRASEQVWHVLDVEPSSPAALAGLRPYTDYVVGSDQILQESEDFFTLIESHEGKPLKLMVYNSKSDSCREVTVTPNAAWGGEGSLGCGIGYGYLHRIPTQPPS
As to IKLETKKTKL [SLC15A2, Q16348], the negative logarithm of the Kd (pKd) result is reported as “below the threshold”.

The target in the next test is T10, TJP3_3, O95049.
T10 sequence (O95049 375-456, limits assumed, looked up): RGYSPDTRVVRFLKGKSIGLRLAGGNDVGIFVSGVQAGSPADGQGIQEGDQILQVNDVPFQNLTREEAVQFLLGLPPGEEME
Nature of the test: holdup assay. Also on record: key: below the threshold = too weak to quantify, mostly under pKd 3.1 to 4. To be noted: plain residues with an end cap or a label only (N-terminal biotin on a linker: ado-ado).
IKLETKKTKL [SLC15A2, Q16348]: the pKd result is “below the threshold”.

In another test the target is TJP2_1, Q9UDY2. Nature of the test: holdup assay. Also on record: key: below the threshold = too weak to quantify, mostly under pKd 3.1 to 4. As to conditions: plain residues with an end cap or a label only (N-terminal biotin on a linker: ado-ado).
Sequence of TJP2_1, Q9UDY2 (Q9UDY2 24-128): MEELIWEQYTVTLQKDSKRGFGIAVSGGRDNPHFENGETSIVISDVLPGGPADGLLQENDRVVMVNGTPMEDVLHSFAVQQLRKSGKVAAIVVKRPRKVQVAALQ
With IKLETKKTKL [SLC15A2, Q16348], the negative-log Kd (pKd) was determined as 3.85.

The target of a further test is T11, CARD11, Q9BXL7.
T11 sequence (Q9BXL7 662-765, limits assumed, looked up): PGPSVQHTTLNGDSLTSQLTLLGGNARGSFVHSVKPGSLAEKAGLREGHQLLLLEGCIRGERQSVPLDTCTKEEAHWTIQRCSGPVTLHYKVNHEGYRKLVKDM
Nature of the test: holdup assay. Set-up: key: below the threshold = too weak to quantify, mostly under pKd 3.1 to 4. To be noted: plain residues with an end cap or a label only (N-terminal biotin on a linker: ado-ado).
Consider IKLETKKTKL [SLC15A2, Q16348], for which the pKd result is “below the threshold”.

Another test has as its target T12, APBA2_2, Q99767.
T12 sequence (Q99767 654-744, limits assumed, looked up): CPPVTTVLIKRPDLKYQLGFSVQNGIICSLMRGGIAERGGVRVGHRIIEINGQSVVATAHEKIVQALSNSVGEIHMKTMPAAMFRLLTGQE
Nature of the test: holdup assay. Also on record: key: below the threshold = too weak to quantify, mostly under pKd 3.1 to 4. As to conditions: plain residues with an end cap or a label only (N-terminal biotin on a linker: ado-ado).
IKLETKKTKL [SLC15A2, Q16348]: the pKd was determined as 3.52.

A further test deals with TJP1_2, Q07157. The test can be described thus: holdup assay. Set-up: key: below the threshold = too weak to quantify, mostly under pKd 3.1 to 4. To be noted: plain residues with an end cap or a label only (N-terminal biotin on a linker: ado-ado).
Sequence of TJP1_2, Q07157 (Q07157 181-274): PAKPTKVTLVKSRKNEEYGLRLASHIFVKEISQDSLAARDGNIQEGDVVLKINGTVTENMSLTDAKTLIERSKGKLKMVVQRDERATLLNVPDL
For IKLETKKTKL [SLC15A2, Q16348], the pKd entry is reported as “below the threshold”.

The target of another test is GRIP2_7, Q9C0E4. The test can be described thus: holdup assay. Set-up: key: below the threshold = too weak to quantify, mostly under pKd 3.1 to 4. To be noted: plain residues with an end cap or a label only (N-terminal biotin on a linker: ado-ado).
Sequence of GRIP2_7, Q9C0E4 (Q9C0E4 934-1023): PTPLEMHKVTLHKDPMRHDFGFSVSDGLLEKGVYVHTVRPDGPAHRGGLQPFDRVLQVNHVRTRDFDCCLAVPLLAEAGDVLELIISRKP
In the case of IKLETKKTKL [SLC15A2, Q16348], the pKd result is “below the threshold”.

The next test has as its target PARD3_3, Q8TEW0. Nature of the test: holdup assay. Set-up: key: below the threshold = too weak to quantify, mostly under pKd 3.1 to 4. As to conditions: plain residues with an end cap or a label only (N-terminal biotin on a linker: ado-ado).
Regarding IKLETKKTKL [SLC15A2, Q16348], the pKd result is “below the threshold”.

A further test deals with T13, FRMPD1, Q5SYB0.
T13 sequence (Q5SYB0 52-145, limits assumed, looked up): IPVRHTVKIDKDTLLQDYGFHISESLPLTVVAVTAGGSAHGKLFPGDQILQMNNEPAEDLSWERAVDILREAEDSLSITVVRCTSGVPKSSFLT
The test can be described thus: holdup assay. Set-up: key: below the threshold = too weak to quantify, mostly under pKd 3.1 to 4. To be noted: plain residues with an end cap or a label only (N-terminal biotin on a linker: ado-ado).
With IKLETKKTKL [SLC15A2, Q16348], the pKd result is on record as “below the threshold”.

(Values after PMC9482650, “Quantitative fragmentomics allow affinity mapping of interactomes” (Nature Communications, 2022).)
